{
  "source": "paper PMC9599533",
  "biological_target": "α-subunit of the M. tuberculosis open gate 20S core particle (M. tuberculosis) (UniProt P9WHU1)",
  "test": "cryo-EM structure",
  "data": [
    {"substance": "α-subunit of the M. tuberculosis open gate 20S core particle (from UniProt P9WHU1 9-248) (domain or fragment)", "values": [
      {"measurement": "stoichiometry N", "result": 7}
    ]}
  ]
}
